These sequences were tested on Escherichia coli TOP10 (assay: shrunken log2 fold change of peptide-encoding DNA abundance (4.5 h post-induction vs induction); higher = less antimicrobial activity (less host growth inhibition)). Conditions: time post-induction: 4.5 h; library: site-saturation at positions 5, 18, 19, 20.
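Further: peptides expressed intracellularly from a pBAD plasmid library in pooled LB shake-flask culture, induced with 0.3% L-arabinose, DNA abundance read by NGS, three biological replicates, DESeq2 with apeglm shrinkage.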

Row | Sequence | shrunken log2 fold change
1 | RRIRIRPPRLPRPRPRPACQPRP | 0.0224
2 | RRIRIRPPRLPRPRPRPADWPRP | 0.218
3 | RRIRIRPPRLPRPRPRPAFDPRP | -0.295
4 | RRIRIRPPRLPRPRPRPAGEPRP | 0.171
5 | RRIRIRPPRLPRPRPRPAGFPRP | 0.0153
6 | RRIRIRPPRLPRPRPRPAGGPRP | 0.3
7 | RRIRIRPPRLPRPRPRPAIAPRP | -0.206
8 | RRIRIRPPRLPRPRPRPAIYPRP | -0.00708
9 | RRIRIRPPRLPRPRPRPAKLPRP | -0.302
10 | RRIRIRPPRLPRPRPRPALLPRP | 0.178
11 | RRIRIRPPRLPRPRPRPALYPRP | -0.312
12 | RRIRIRPPRLPRPRPRPANPPRP | -0.29
13 | RRIRIRPPRLPRPRPRPAQAPRP | 0.2
14 | RRIRIRPPRLPRPRPRPAQEPRP | -0.0756
15 | RRIRIRPPRLPRPRPRPARIPRP | -0.0826
16 | RRIRIRPPRLPRPRPRPARPPRP | 0.474
17 | RRIRIRPPRLPRPRPRPARSPRP | 0.0389
18 | RRIRIRPPRLPRPRPRPATTPRP | -0.145
19 | RRIRIRPPRLPRPRPRPAVQPRP | -0.107
20 | RRIRIRPPRLPRPRPRPAYCPRP | -0.23
21 | RRIRIRPPRLPRPRPRPAYDPRP | -0.325
22 | RRIRIRPPRLPRPRPRPCALPRP | 0.00316
23 | RRIRIRPPRLPRPRPRPCARPRP | 0.039
24 | RRIRIRPPRLPRPRPRPCCGPRP | -0.252
25 | RRIRIRPPRLPRPRPRPCCIPRP | -2.25

Row | Sequence | shrunken log2 fold change
26 | RRIRIRPPRLPRPRPRPCCVPRP | -0.726
27 | RRIRIRPPRLPRPRPRPCDNPRP | -0.178
28 | RRIRIRPPRLPRPRPRPCDVPRP | -0.124
29 | RRIRIRPPRLPRPRPRPCEKPRP | -0.626
30 | RRIRIRPPRLPRPRPRPCEPPRP | -0.28
31 | RRIRIRPPRLPRPRPRPCFMPRP | -0.378
32 | RRIRIRPPRLPRPRPRPCFWPRP | -0.22
33 | RRIRIRPPRLPRPRPRPCGTPRP | -0.00435
34 | RRIRIRPPRLPRPRPRPCKIPRP | -0.293
35 | RRIRIRPPRLPRPRPRPCKPPRP | -0.19
36 | RRIRIRPPRLPRPRPRPCKVPRP | -0.513
37 | RRIRIRPPRLPRPRPRPCLGPRP | -0.157
38 | RRIRIRPPRLPRPRPRPCLIPRP | -0.337
39 | RRIRIRPPRLPRPRPRPCNEPRP | -0.0608
40 | RRIRIRPPRLPRPRPRPCPAPRP | -0.247
41 | RRIRIRPPRLPRPRPRPCPEPRP | -0.644
42 | RRIRIRPPRLPRPRPRPCPYPRP | -0.269
43 | RRIRIRPPRLPRPRPRPCQWPRP | 0.0525
44 | RRIRIRPPRLPRPRPRPCRFPRP | -0.0104
45 | RRIRIRPPRLPRPRPRPCSFPRP | -0.45
46 | RRIRIRPPRLPRPRPRPCTGPRP | -0.887
47 | RRIRIRPPRLPRPRPRPCWWPRP | 0.082
48 | RRIRIRPPRLPRPRPRPDAKPRP | 0.0898
49 | RRIRIRPPRLPRPRPRPDATPRP | 0.0122
50 | RRIRIRPPRLPRPRPRPDCQPRP | 0.000528

Row | Sequence | shrunken log2 fold change
51 | RRIRIRPPRLPRPRPRPDEFPRP | 0.0764
52 | RRIRIRPPRLPRPRPRPDFHPRP | -0.649
53 | RRIRIRPPRLPRPRPRPDGMPRP | -0.06
54 | RRIRIRPPRLPRPRPRPDHIPRP | -0.0811
55 | RRIRIRPPRLPRPRPRPDHVPRP | -0.23
56 | RRIRIRPPRLPRPRPRPDKDPRP | -0.0993
57 | RRIRIRPPRLPRPRPRPDKFPRP | -0.565
58 | RRIRIRPPRLPRPRPRPDKMPRP | -0.473
59 | RRIRIRPPRLPRPRPRPDLKPRP | -0.194
60 | RRIRIRPPRLPRPRPRPDLMPRP | -0.396
61 | RRIRIRPPRLPRPRPRPDMQPRP | -0.0983
62 | RRIRIRPPRLPRPRPRPDNEPRP | -0.117
63 | RRIRIRPPRLPRPRPRPDPIPRP | -0.0427
64 | RRIRIRPPRLPRPRPRPDPMPRP | -0.205
65 | RRIRIRPPRLPRPRPRPDPRPRP | 0.132
66 | RRIRIRPPRLPRPRPRPDRIPRP | 0.0297
67 | RRIRIRPPRLPRPRPRPDRMPRP | -0.0164
68 | RRIRIRPPRLPRPRPRPDRPPRP | -0.0549
69 | RRIRIRPPRLPRPRPRPDTCPRP | 0.0578
70 | RRIRIRPPRLPRPRPRPDVIPRP | -0.00836
71 | RRIRIRPPRLPRPRPRPDVLPRP | -1
72 | RRIRIRPPRLPRPRPRPDVQPRP | -0.192
73 | RRIRIRPPRLPRPRPRPDWYPRP | -0.842
74 | RRIRIRPPRLPRPRPRPEAGPRP | -0.17
75 | RRIRIRPPRLPRPRPRPECHPRP | 0.0255

Row | Sequence | shrunken log2 fold change
76 | RRIRIRPPRLPRPRPRPEEEPRP | -0.031
77 | RRIRIRPPRLPRPRPRPEEGPRP | -0.05
78 | RRIRIRPPRLPRPRPRPEFLPRP | -0.0199
79 | RRIRIRPPRLPRPRPRPEFNPRP | -0.0922
80 | RRIRIRPPRLPRPRPRPEFWPRP | -0.0113
81 | RRIRIRPPRLPRPRPRPEHCPRP | 0.0755
82 | RRIRIRPPRLPRPRPRPEHTPRP | -0.464
83 | RRIRIRPPRLPRPRPRPEMRPRP | -0.0182
84 | RRIRIRPPRLPRPRPRPENNPRP | -0.36
85 | RRIRIRPPRLPRPRPRPENQPRP | -0.473
86 | RRIRIRPPRLPRPRPRPENVPRP | 0.267
87 | RRIRIRPPRLPRPRPRPEPCPRP | -0.057
88 | RRIRIRPPRLPRPRPRPEQIPRP | -9e-05
89 | RRIRIRPPRLPRPRPRPEQKPRP | 2.45
90 | RRIRIRPPRLPRPRPRPESIPRP | -0.12
91 | RRIRIRPPRLPRPRPRPETDPRP | -0.0362
92 | RRIRIRPPRLPRPRPRPETIPRP | -0.115
93 | RRIRIRPPRLPRPRPRPEVEPRP | -0.0136
94 | RRIRIRPPRLPRPRPRPEYHPRP | -0.152
95 | RRIRIRPPRLPRPRPRPEYRPRP | -1.12
96 | RRIRIRPPRLPRPRPRPFDGPRP | -0.262
97 | RRIRIRPPRLPRPRPRPFDMPRP | -0.142
98 | RRIRIRPPRLPRPRPRPFEGPRP | -0.221
99 | RRIRIRPPRLPRPRPRPFELPRP | -0.138
100 | RRIRIRPPRLPRPRPRPFFKPRP | -0.629

Row | Sequence | shrunken log2 fold change
101 | RRIRIRPPRLPRPRPRPFGGPRP | -0.103
102 | RRIRIRPPRLPRPRPRPFGPPRP | -0.189
103 | RRIRIRPPRLPRPRPRPFGYPRP | -0.478
104 | RRIRIRPPRLPRPRPRPFKYPRP | -0.0899
105 | RRIRIRPPRLPRPRPRPFLCPRP | -0.628
106 | RRIRIRPPRLPRPRPRPFMKPRP | -0.127
107 | RRIRIRPPRLPRPRPRPFPMPRP | -0.412
108 | RRIRIRPPRLPRPRPRPFPSPRP | -0.953
109 | RRIRIRPPRLPRPRPRPFQHPRP | -0.214
110 | RRIRIRPPRLPRPRPRPFSEPRP | -0.315
111 | RRIRIRPPRLPRPRPRPFSTPRP | -0.38
112 | RRIRIRPPRLPRPRPRPFTHPRP | -0.182
113 | RRIRIRPPRLPRPRPRPFVWPRP | -0.157
114 | RRIRIRPPRLPRPRPRPFYDPRP | -0.202
115 | RRIRIRPPRLPRPRPRPFYGPRP | 0.0259
116 | RRIRIRPPRLPRPRPRPFYPPRP | -0.776
117 | RRIRIRPPRLPRPRPRPGAIPRP | -0.0678
118 | RRIRIRPPRLPRPRPRPGAQPRP | -0.0304
119 | RRIRIRPPRLPRPRPRPGATPRP | -0.0576
120 | RRIRIRPPRLPRPRPRPGGEPRP | -0.063
121 | RRIRIRPPRLPRPRPRPGHMPRP | 0.0184
122 | RRIRIRPPRLPRPRPRPGIEPRP | -0.154
123 | RRIRIRPPRLPRPRPRPGINPRP | -0.603
124 | RRIRIRPPRLPRPRPRPGISPRP | -0.27
125 | RRIRIRPPRLPRPRPRPGKAPRP | 0.039

Row | Sequence | shrunken log2 fold change
126 | RRIRIRPPRLPRPRPRPGKKPRP | 0.0847
127 | RRIRIRPPRLPRPRPRPGKWPRP | 0.0539
128 | RRIRIRPPRLPRPRPRPGPIPRP | -0.329
129 | RRIRIRPPRLPRPRPRPGPTPRP | 0.175
130 | RRIRIRPPRLPRPRPRPGQAPRP | -0.0154
131 | RRIRIRPPRLPRPRPRPGQMPRP | -0.0223
132 | RRIRIRPPRLPRPRPRPGRIPRP | 0.0431
133 | RRIRIRPPRLPRPRPRPGRSPRP | 0.0764
134 | RRIRIRPPRLPRPRPRPGSKPRP | -0.0906
135 | RRIRIRPPRLPRPRPRPGSTPRP | -0.549
136 | RRIRIRPPRLPRPRPRPGTMPRP | -0.112
137 | RRIRIRPPRLPRPRPRPGVYPRP | -0.39
138 | RRIRIRPPRLPRPRPRPHATPRP | -0.0163
139 | RRIRIRPPRLPRPRPRPHAYPRP | -0.549
140 | RRIRIRPPRLPRPRPRPHCTPRP | -0.0502
141 | RRIRIRPPRLPRPRPRPHFDPRP | -0.149
142 | RRIRIRPPRLPRPRPRPHIAPRP | -0.957
143 | RRIRIRPPRLPRPRPRPHIGPRP | -0.17
144 | RRIRIRPPRLPRPRPRPHKIPRP | -0.462
145 | RRIRIRPPRLPRPRPRPHKRPRP | -0.169
146 | RRIRIRPPRLPRPRPRPHKTPRP | -0.000475
147 | RRIRIRPPRLPRPRPRPHLFPRP | -0.359
148 | RRIRIRPPRLPRPRPRPHLVPRP | -0.573
149 | RRIRIRPPRLPRPRPRPHMIPRP | -0.602
150 | RRIRIRPPRLPRPRPRPHNLPRP | -0.334
